Measured values published in US20220185894A1 (F STAR THERAPEUTICS, published 2022).
Changes are numbered by the printed parent chain.

T1: recombinant Fc-tagged human LAG-3 (R&D Systems, 2319-L3-050) (human, UniProt P18627 23-450)
T1 construct: Bought protein; also called LAG-3 Fc; human LAG-3-Fc; not shown: Fc tag of the bought fusion protein
T1 sequence: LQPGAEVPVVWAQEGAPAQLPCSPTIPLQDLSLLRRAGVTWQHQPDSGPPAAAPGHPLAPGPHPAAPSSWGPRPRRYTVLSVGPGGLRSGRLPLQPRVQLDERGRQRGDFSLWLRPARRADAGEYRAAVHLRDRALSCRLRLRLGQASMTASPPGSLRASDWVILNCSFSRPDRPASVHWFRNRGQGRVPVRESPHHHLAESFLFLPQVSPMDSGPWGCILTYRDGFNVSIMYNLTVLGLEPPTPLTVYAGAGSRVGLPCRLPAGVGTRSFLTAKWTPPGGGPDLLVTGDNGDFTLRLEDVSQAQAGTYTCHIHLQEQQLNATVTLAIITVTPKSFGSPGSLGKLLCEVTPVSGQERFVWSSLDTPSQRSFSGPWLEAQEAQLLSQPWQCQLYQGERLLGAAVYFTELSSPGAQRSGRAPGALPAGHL

B1: anti-human LAG-3/PD-L1 mAb2 FS18-7-36/84G09 with LALA mutation (bispecific antibody, human IgG1, kappa, L234A L235A)
heavy: EVQLVESGGGLVQPGRSLRLSCAASGFTFDDYAMHWVRQTPGKGLEWVSGISWKSNIIGYADSVKGRFTISRDNAKNSLYLQMNSLRAEDTALYYCARDITGSGSYGWFDPWGQGTLVTVSSASTKGPSVFPLAPSSKSTSGGTAALGCLVKDYFPEPVTVSWNSGALTSGVHTFPAVLQSSGLYSLSSVVTVPSSSLGTQTYICNVNHKPSNTKVDKKVEPKSCDKTHTCPPCPAPEAAGGPSVFLFPPKPKDTLMISRTPEVTCVVVDVSHEDPEVKFNWYVDGVEVHNAKTKPREEQYNSTYRVVSVLTVLHQDWLNGKEYKCKVSNKALPAPIEKTISKAKGQPREPQVYTLPPSWDEPWGEDVSLTCLVKGFYPSDIAVEWESNGQPENNYKTTPPVLDSDGSYFLYSKLTVPYDRWVWPDEFSCSVMHEALHNHYTQKSLSLSPG
light: DIQMTQSPSSLSASVGDRVTITCRASQSISSYLNWYQQKPGKAPKPLIYVASSLQSGVPSSFSGSGSGTDFTLTISSLQPEDFATYYCQQSYSNPITFGQGTRLEIKRTVAAPSVFIFPPSDEQLKSGTASVVCLLNNFYPREAKVQWKVDNALQSGNSQESVTEQDSKDSTYSLSSTLTLSKADYEKHKVYACEVTHQGLSSPVTKSFNRGEC
notes: also called FS18-7-36/84G09LALA
B2: anti-human LAG-3/PD-L1 mAb2 FS18-7-65/84G09 with LALA mutation (bispecific antibody, human IgG1, kappa, L234A L235A)
heavy: B1 heavy with Q391Y, P392A, N394Y, Y409F
light: B1 light
notes: also called FS18-7-65/84G09 LALA; F518-7-65/84G09LALA

Tests used:
[1] = molecular target: T2, human PD-L1 expressed on cells (human, UniProt Q9NZQ7 19-290); assay: cell-based or functional assay
T2 sequence (Q9NZQ7 19-290 limits assumed): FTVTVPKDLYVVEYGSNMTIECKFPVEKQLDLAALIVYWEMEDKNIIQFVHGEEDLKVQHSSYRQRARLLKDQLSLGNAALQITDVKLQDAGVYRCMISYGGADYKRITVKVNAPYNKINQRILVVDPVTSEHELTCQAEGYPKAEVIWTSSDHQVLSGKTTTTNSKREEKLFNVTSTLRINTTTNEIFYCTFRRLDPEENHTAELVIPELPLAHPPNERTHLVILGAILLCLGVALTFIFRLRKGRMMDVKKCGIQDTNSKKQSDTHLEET

[2] = molecular target: T2, human PD-L1 expressed on cells; assay: flow cytometry on HEK cells expressing human PD-L1
Method: (§1) HEK cells expressing human or cynomolgus PD-L1 grown in DMEM (Life Technologies, 61965-026) containing 10% FBS (Life Technologies, 10270-1-6), 100 μg/ml Hygromycin B (Melford Laboratories Ltd, Z2475), 15 μg/ml Blasticidin (Melford Laboratories Ltd, B1105) and 1 μg/ml Doxycyclin (Sigma, D9891) were detached from tissue culture flasks using cell dissociation buffer (Life Technologies, 13151-014) and seeded in V-bottom 96-well plates (Costar, 3897) at 2×10⁵ cells/well. The plates were centrifuged at 1500 rpm for 3 min at 4° C. to pellet the cells. A dilution series of the mAb² (or control mAb) was incubated with the cells in a 100 μl volume for 1 h at 4° C. The plates were washed and secondary antibody (Anti-human Fc-488, Jackson ImmunoResearch, 109-546-098) was diluted 1:1000 in PBS and 100 μl was added to the cells for 30 min at 4° C. (plates were kept in the dark). The plates were washed then cells were resuspended in 100 μl PBS containing 1 μg/ml DAPI (Biotium, 40043). The plates were read using Canto II flow cytometer (BD Bioscience). Dead cells were excluded and the fluorescence in the FITC channel (488 nm/530/30) was measured. The data was fit using log (agonist) vs response in GraphPad Prism Software. The plates were read on a BD FACSCanto II cytometer (BD Biosciences) and the data analysed using FlowJo.

[3] = molecular target: T3, cynomolgus PD-L1 expressed on cells (cynomolgus monkey, UniProt Q9NZQ7 19-290 (human entry)); assay: flow cytometry on HEK cells expressing cynomolgus PD-L1
T3 construct: also called cPD-L1; cyno PD-L1
T3 sequence (Q9NZQ7 other isoform, or with tags, fused parts or gaps limits assumed): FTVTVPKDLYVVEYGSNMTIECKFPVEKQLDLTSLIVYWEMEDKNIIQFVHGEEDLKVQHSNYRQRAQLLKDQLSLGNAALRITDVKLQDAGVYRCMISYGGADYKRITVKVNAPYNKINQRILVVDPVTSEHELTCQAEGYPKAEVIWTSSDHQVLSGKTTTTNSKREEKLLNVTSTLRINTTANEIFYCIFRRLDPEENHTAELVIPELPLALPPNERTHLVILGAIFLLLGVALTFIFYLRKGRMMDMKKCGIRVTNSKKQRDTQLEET
Method: as §1

[4] = molecular target: T4, human PD-L1 Fc (R&D Systems, 156-B7) (human, UniProt Q9NZQ7 19-239); assay: SPR, BIAcore T200; mAb2 captured on Protein L, PD-L1 Fc injected
T4 construct: Bought protein; not shown: Fc tag of the bought fusion protein
T4 sequence (Q9NZQ7 19-239 limits assumed): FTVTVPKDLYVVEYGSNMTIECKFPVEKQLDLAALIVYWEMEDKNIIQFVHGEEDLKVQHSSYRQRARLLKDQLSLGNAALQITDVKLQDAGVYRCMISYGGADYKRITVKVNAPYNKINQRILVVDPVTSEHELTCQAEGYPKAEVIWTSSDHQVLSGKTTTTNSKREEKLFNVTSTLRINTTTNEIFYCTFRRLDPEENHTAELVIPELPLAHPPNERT
Method: (§2) Protein L (Thermo, 21189) was immobilized on flow cells 1 and 2 of a Series S CM5 chip (GE Healthcare, BR-1005-30) by amine coupling (GE Healthcare, BR-1000-50) to a surface density of 2000 RU by following the manufacturer's instructions for the BIAcore T200 instrument. […] The association time was 3 min and the dissociation time was 6 min. Running buffer was HBS-P (GE Healthcare, BR-1003-68). Both flow cells were regenerated by injecting 10 mM sodium hydroxide (NaOH) at a flow rate of 100 μl/min for 20 seconds. The data were analysed by double referencing against the blank flow cell.
(§3) The binding kinetics were fit with a 1:1 Langmuir model to generate binding association (kₐ) and dissociation (kd) rates. Equilibrium binding constants (KD) were calculated by dividing the dissociation rate by the association rate for each sample. Data analysis was performed with BiaEvaluation software version 3.2.

[5] = molecular target: T1, recombinant Fc-tagged human LAG-3 (R&D …); assay: SPR, BIAcore T200; mAb2 captured on Protein L, human LAG-3 Fc injected
Method: as §2, §3

Binder | Maximal IL2 release calculated as % ctrl (84G09 + 25F7) [1] [%] | EC50 [2] [nM] | EC50 [3] [nM] | Kd [4] [nM] | koff [4] [s⁻¹] | kon [4] [M⁻¹ s⁻¹] | Kd [5] [nM] | koff [5] [s⁻¹] | kon [5] [M⁻¹ s⁻¹]
B1 | 71.6 | 3.91 | 2 | 3.5 | 0.00056 | 160000 | 0.038 | 0.00017 | 4.4e+06
B2 | 70.2 | 4 | 1.84 | 1.1 | 0.00014 | 130000 | 0.039 | 0.00023 | 5.9e+06
